Laboratory results as given in US20210054353, “NOVEL RNA-PROGRAMMABLE ENDONUCLEASE SYSTEMS AND USES THEREOF” (CRISPR THERAPEUTICS AG, published 2021).

Columns and labels:
[1] = target: T1, Gib11 sRGN (synthetic (Staphylococcus Cas9 chimera)); experiment: FP; cleavage; 5 mM MgCl2, 37 C; PAM GGGG on substrate; mismatch values only in figure
T1 chain: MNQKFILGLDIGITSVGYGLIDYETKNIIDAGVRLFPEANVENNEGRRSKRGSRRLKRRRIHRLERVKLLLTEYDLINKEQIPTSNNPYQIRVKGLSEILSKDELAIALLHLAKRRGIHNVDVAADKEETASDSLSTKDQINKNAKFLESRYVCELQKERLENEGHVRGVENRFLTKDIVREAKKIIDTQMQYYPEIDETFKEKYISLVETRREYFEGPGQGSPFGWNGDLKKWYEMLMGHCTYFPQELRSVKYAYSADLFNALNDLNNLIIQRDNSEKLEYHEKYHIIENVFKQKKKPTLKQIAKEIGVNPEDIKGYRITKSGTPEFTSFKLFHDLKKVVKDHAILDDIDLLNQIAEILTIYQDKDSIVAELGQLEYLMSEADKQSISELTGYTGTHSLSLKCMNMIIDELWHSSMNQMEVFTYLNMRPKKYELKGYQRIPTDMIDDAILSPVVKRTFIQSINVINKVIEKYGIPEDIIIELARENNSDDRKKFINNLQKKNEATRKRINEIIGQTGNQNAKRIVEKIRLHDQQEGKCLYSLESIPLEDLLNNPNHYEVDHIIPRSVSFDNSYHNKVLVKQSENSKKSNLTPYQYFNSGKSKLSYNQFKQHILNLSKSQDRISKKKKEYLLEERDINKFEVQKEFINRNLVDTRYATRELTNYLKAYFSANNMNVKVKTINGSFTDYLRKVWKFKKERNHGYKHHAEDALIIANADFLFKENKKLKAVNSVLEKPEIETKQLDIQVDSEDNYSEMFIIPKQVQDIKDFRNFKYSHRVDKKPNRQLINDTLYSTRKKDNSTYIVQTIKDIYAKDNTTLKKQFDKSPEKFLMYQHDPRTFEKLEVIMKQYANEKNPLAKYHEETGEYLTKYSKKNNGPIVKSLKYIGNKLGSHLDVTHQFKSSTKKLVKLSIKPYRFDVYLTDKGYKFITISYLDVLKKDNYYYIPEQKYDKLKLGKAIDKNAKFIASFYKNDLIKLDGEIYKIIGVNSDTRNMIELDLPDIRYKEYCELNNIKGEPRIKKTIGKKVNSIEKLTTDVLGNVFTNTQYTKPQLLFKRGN
Procedure: (§1) Oligonucleotide duplexes were prepared in 10 mM Tris (pH 7.8) 50 mM NaCl as 10 μM solutions (from 100 μM stocks) and annealed at 95° C. for 5 minutes then slowly cooled down in thermo cycler (6° C. per minute). The stocks were subsequently diluted in 10 mM Tris (pH 7.8), 50 mM NaCl, and 0.05% Pluronic. 20 μl of each oligonucleotide (20 nM) was immobilized on streptavidin coated plates, washed twice after 10 minutes and then incubated with a 20 μL sample for a kinetics of 60 minutes (excitation wavelength: 635 nm; emission wavelength: 670 nm). Prior to the cleavage the reaction RNP was formed. RNP was assembled by mixing 12.03 μl of the respective sRGN protein (1.21 μg/μl) in 3200 μl 1×PBS+5 mM MgCl₂ with and without sgRNA (SEQ ID NO: 128; 60 nM final concentration), RNPs were incubated 5 min at 37° C. prior to the reaction. 20 μl RNP was added to each well and the polarization was measured for 60 minutes at 37° C.
(§2) The cleavage kinetics were analyzed by calculating the initial slope of the oligonucleotide cleavage reaction. The slopes were calculated for each of the 61 substrates and normalized to the value of the on-target substrate (defined as 1). The normalized cleavage values for all 60 off-target substrates where then grouped according to their position. […]

[2] = target: T2, E2 sRGN (synthetic (Staphylococcus Cas9 chimera)); experiment: FP; cleavage; specificity profile comparable to SluCas9
T2 chain: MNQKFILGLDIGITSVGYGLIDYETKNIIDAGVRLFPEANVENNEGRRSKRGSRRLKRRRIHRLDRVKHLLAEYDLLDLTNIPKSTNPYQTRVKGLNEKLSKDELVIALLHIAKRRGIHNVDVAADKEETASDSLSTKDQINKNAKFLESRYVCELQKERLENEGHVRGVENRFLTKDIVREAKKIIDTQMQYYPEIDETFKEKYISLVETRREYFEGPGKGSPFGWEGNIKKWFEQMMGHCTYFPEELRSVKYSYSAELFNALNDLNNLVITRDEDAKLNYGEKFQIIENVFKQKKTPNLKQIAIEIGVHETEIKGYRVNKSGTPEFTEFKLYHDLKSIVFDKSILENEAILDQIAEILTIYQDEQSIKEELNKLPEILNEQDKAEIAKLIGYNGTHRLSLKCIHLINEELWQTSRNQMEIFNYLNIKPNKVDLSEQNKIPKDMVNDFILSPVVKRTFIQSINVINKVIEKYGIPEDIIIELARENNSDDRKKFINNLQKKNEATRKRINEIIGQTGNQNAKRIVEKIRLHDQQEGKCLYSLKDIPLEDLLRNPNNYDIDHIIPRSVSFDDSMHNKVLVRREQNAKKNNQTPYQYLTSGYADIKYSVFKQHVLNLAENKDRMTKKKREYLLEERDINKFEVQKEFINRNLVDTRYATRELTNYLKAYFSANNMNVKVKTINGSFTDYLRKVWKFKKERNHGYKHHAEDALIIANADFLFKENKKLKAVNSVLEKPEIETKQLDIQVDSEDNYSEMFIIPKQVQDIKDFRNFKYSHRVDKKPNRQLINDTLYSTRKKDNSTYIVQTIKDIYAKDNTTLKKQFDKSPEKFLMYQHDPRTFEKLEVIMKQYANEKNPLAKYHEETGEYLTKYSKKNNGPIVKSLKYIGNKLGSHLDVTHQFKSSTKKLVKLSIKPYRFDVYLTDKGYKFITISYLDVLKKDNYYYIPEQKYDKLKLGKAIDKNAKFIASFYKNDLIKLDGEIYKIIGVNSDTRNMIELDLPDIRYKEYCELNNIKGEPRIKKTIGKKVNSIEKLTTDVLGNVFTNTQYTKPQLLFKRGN
Procedure: as §1, §2

[3] = target: T3, F8 sRGN (synthetic (Staphylococcus Cas9 chimera)); experiment: FP; cleavage; 5 mM MgCl2, 37 C
T3 chain: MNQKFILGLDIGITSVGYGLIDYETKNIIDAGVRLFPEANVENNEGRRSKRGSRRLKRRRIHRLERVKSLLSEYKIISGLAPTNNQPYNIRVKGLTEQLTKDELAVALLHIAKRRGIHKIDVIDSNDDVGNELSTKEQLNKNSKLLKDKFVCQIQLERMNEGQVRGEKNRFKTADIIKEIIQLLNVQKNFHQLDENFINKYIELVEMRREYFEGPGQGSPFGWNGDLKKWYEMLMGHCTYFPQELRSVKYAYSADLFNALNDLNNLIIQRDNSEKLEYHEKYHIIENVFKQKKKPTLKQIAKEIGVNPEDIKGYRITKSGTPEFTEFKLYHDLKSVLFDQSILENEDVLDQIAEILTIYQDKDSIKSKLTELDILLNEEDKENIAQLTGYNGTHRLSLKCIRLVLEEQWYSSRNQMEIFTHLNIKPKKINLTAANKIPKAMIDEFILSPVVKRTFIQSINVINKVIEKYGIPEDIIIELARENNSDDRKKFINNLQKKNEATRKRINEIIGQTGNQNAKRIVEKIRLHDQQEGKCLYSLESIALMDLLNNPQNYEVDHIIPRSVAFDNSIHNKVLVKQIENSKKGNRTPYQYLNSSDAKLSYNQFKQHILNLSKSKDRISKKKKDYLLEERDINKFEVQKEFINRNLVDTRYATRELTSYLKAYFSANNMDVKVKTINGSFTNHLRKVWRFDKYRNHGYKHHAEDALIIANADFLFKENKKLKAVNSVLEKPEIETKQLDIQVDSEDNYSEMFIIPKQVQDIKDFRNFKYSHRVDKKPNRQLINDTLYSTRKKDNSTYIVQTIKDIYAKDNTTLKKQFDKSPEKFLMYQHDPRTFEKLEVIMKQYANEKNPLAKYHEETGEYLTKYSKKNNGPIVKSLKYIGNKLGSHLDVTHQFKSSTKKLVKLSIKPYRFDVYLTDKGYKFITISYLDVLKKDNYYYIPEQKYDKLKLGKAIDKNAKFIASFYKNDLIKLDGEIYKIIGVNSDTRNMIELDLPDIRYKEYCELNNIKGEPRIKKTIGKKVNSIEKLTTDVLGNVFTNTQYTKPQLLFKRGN
Procedure: as §1, §2

[4] = target: T4, Gib11Spa-1 sRGN (synthetic (Staphylococcus Cas9 chimera)); experiment: FP; cleavage; 5 mM MgCl2, 37 C; PAM GGGG on substrate
T4 chain: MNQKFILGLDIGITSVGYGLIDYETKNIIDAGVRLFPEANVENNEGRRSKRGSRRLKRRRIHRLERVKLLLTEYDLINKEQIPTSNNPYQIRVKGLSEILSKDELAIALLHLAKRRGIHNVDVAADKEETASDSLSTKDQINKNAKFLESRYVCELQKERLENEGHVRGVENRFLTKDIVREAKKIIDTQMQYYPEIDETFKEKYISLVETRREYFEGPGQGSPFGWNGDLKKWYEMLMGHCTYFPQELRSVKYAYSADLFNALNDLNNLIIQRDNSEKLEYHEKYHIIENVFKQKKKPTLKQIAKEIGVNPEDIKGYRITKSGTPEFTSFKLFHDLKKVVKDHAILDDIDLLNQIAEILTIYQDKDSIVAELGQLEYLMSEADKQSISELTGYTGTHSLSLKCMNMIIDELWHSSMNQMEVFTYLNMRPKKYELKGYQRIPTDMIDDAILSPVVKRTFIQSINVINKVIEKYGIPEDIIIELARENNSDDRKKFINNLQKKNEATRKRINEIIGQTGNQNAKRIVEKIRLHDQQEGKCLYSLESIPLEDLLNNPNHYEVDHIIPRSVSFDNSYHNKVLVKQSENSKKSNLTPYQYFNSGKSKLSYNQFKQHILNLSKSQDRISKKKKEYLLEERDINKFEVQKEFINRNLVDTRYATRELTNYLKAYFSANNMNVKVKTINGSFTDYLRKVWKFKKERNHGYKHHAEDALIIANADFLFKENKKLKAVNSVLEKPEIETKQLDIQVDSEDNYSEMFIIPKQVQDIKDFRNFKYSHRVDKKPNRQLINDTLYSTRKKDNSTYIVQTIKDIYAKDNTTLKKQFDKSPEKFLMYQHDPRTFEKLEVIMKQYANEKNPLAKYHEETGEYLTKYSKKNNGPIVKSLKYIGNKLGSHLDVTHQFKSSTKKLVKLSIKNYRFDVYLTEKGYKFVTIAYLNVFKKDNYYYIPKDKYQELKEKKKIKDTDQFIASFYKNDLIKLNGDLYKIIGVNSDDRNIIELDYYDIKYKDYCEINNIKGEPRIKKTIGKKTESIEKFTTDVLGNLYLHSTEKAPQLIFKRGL
Procedure: as §1, §2

[5] = target: T5, Gib11Spa-3 sRGN (synthetic (Staphylococcus Cas9 chimera)); experiment: as above
T5 chain: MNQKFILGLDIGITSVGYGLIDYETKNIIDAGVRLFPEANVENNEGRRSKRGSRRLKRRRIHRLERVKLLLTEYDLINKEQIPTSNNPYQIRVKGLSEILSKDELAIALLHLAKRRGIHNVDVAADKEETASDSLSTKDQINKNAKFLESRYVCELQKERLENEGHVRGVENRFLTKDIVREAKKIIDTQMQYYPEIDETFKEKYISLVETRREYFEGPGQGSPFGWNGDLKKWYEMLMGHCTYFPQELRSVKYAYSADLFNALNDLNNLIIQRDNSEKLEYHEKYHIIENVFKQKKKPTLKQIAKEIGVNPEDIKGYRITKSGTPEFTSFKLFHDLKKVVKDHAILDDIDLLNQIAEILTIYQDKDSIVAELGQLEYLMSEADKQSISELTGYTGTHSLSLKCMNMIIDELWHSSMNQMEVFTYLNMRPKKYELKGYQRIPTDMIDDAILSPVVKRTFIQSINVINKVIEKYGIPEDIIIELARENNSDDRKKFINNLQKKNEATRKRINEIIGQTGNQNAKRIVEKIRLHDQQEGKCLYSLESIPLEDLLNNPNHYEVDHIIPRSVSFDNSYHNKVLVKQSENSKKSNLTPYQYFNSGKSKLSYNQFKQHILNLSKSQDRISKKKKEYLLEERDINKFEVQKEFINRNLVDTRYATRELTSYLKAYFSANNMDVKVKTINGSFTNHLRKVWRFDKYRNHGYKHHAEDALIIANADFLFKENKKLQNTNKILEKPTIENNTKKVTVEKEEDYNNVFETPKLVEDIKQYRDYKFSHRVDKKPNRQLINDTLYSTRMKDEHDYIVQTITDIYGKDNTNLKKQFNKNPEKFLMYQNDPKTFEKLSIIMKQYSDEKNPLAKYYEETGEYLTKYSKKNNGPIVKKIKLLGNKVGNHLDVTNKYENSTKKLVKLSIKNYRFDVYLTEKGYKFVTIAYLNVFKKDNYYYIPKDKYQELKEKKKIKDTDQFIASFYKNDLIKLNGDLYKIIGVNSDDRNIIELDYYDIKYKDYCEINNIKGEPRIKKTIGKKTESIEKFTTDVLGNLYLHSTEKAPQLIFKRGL
Procedure: as §1, §2

Measured: binding result

B1: sgRNA_Ex6 ; R01-1 on-target duplex (ssRNA ; dsDNA)
RNA: GGUGAACGUGGAUGAAGUUGGUUUUAGUACUCUGGAAACAGAAUCUACUGAAACAAGACAAUAUGUCGUGUUUAUCCCAUCAAUUUAUUGGUGGGAUUUUUUUCUAGCAUAACCCCUUGGGGCCUCUAAACGGGUCUUGAGGGGUUUUUU
DNA 1: GGTGAACGTGGATGAAGTTGTGGGGTAC
DNA 2: GCGGTACCCCACAACTTCATCCACGTTCACCGG
binds: [1] | [2] | [3] | [4] | [5]
